Key:
HLA class II alleles = assay: ProImmune REVEAL MHC class II binding assay, summary over the seven alleles; parameters: species or system human; conditions: number of class II alleles for which positive binding (score >=15%) was detected
From the text: (§1) The highly frequent HLA class II alleles HLA-DR1 (α1*01:01;β1*01:01), HLA-DR15 (α1*01:01;β1*15:01), HLA-DR3 (α1*01:01;β1*03:01), HLA-DR4 (α1*01:01;β1*04:01), HLA-DR11 (α1*01:01;β1*11:01), HLA-DR13 (α1*01:01;β1*13:01), and HLA-DR7 (α1*01:01;β1*07:01) were selected. Each peptide was given a score relative to the positive control peptide, which is a known T-cell epitope. The score of the test peptide is reported quantitatively as a percentage of the signal generated by the positive control peptide, and the peptide is indicated as having a putative pass or fail result. Good binders are considered to be those peptides with scores >=15% of the positive control as defined by Proimmune.

[1] = system: PBMC from chronic HBV-infected subjects; assay: IFNγ ELISpot of PBMC restimulated with individual unconjugated HBV long peptides (Example 5); type: cell-based, human; conditions: for T cell responses (IFNγ ELISpot), level and frequency of responders: HBeAg-negative inactive carriers and HBeAg-negative treated subjects, 5 μg/mL, 18 h, FIGS. 9 and 10; for T cell responses (IFNγ ELISpot) grouped by infecting HBV genotype: genotypes A, B, C & D, FIG. 11; for T cell responses (IFNγ ELISpot) grouped by ethnic background: three ethnic groups, FIG. 12
Protocol: One vial of PBMC from each subject (containing 1×10^7 cells) was thawed and lymphocyte numbers were determined using a Scepter™ automated handheld cell counter. PBMC were cultured in 2 mL culture medium (CM: RPMI-1640 Glutamax supplemented with 5% human AB serum) in 24 well cell culture plates at a concentration of 1×10^6 cells/mL for a total of 11 days. Cells were stimulated with a mixture of the nine HBV-derived long peptides described in Example 3.
Each peptide was used at a final concentration of 1 μg/peptide/mL. On Day 4, IL-2 and IL-15 were added to the cultures to final concentrations of 10 IU/mL and 10 ng/mL respectively. On Day 10, cells were washed twice in CM and cultured with 10 IU/mL IL-2 for 1 additional day. On Day 11, cells were washed twice in CM, counted and incorporated in a human IFNγ (interferon-gamma) ELISpot assay or intracellular cytokine staining.
Cells from short term cultures were plated in triplicate wells at 5×10^4 PBMC/well. Final antigen concentrations used were: 5 μg/mL for each individual peptides; PHA positive control: 1 μg/mL.

[2] = target: T1, HLA-DR7 (α1*01:01;β1*07:01) (Homo sapiens, UniProt P01903+P01911, A100R/A102G/A103Q/D57E/D86V/E43K/F76Y/K127E/L162R/M171V/P40G/Q125H/Q99D/R195Q/R33Q/R42Y/R54Q/S133A/S149N/S66F/T210M/V115G/Y107V/Y59L/Y89S); assay: ProImmune REVEAL MHC class II binding assay of long peptides; conditions: percentage of the signal of the positive control peptide; positive binding score >=15%
T1 construct: purchased ProImmune
From the text: as §1

[3] = target: T2, HLA-DR15 (α1*01:01;β1*15:01) (Homo sapiens, UniProt P01903+P01911); assay: as above; conditions: percentage of the signal of the positive control peptide; positive binding score >=15%
T2 construct: purchased ProImmune
From the text: as §1

[4] = target: T3, HLA-DR13 (α1*01:01;β1*13:01) (Homo sapiens, UniProt P01903+P01911, A100E/A169T/K41T/L162R/M171V/P40S/Q125H/Q178H/Q39Y/Q99D/R42S/S66N/W38E/Y61H); assay: as above; conditions: percentage of the signal of the positive control peptide; positive binding score >=15%
T3 construct: purchased ProImmune
From the text: The highly frequent HLA class II alleles HLA-DR1 (α1*01:01;β1*01:01), HLA-DR15 (α1*01:01;β1*15:01), HLA-DR3 (α1*01:01;β1*03:01), HLA-DR4 (α1*01:01;β1*04:01), HLA-DR11 (α1*01:01;β1*11:01), HLA-DR13 (α1*01:01;β1*13:01), and HLA-DR7 (α1*01:01;β1*07:01) were selected. Each peptide was given a score relative to the positive control peptide, which is a known T-cell epitope.

HLA-A*0201 = HLA-A*0201 (Homo sapiens, UniProt P04439, D140Y/D185E/D98H/E176V/E277Q/G131W/G231S/I119V/I121R/I166T/I218V/L300P/L318F/N151K/N90K/P208A/P217A/Q86G/Q94H/R138H/R169H/T345S); assay: ProImmune REVEAL MHC class I binding assay of nonamers; conditions: score as % of positive control peptide
From the text: (§2) The number of HLA class I binding registers contained in each peptide may be determined by determining the ability of the peptide to bind to a range of frequently occurring HLA class I molecules. HLA class I binding may be measured using the ProImmune REVEAL® MHC-peptide Binding Assay (ProImmune Ltd, Oxford, UK). The REVEAL™ MHC peptide-binding assay measures the ability of each peptide to stabilize the ternary MHC-peptide complex for […], HLA-A*0201, HLA¬A*0301, HLA-A*2402, HLA-B*0702, HLA-B*0801, HLA-B*3501 representative of main HLA class I supertypes. Each tested peptide is given a score relative to a pass/fail control peptide and also compared to a positive control peptide.
(§3) Detection is based on the presence or absence of the native conformation of the MHC-peptide complex. The highly frequent HLA class I alleles (HLA-A*0201, A*0301, A*1101, A*2402, B*0702, B*0801, and B*3501) were selected. Binding to MHC molecules was compared to that of a known T-cell epitope, a positive control peptide, with very strong binding properties. […] The score of the test peptide is reported quantitatively as a percentage of the signal generated by the positive control peptide, and the peptide is indicated as having a putative pass or fail result. Good binders are considered to be those peptides with scores 45% of the positive control as defined by ProImmune.

HLA-A*2402 = HLA-A*2402 (Homo sapiens, UniProt P04439, D101N/D140Y/D185E/E176V/E190D/F33S/G103R/G107R/I119L/I121M/I306V/K335N/L105A/L180Q/L300P/N151K/N90K/Q86E/Q94H/R106L/R138H/R89G/T104I/T345S/V100E/W191G/Y123F); assay: as above; conditions: score as % of positive control peptide
From the text: as §2, §3

HLA-A*1101 = target: T4, HLA-A*1101 (Homo sapiens, UniProt P04439, A114D/D185E/E176A/F33Y/L180Q/S129P/T187R); assay: as above; conditions: score as % of positive control peptide
T4 construct: purchased ProImmune
From the text: as §2, §3

HLA-B*0702 = target: T5, HLA-B*0702 (Homo sapiens, UniProt P01889); assay: as above; conditions: score as % of positive control peptide
T5 construct: purchased ProImmune
From the text: as §2, §3

HLA-B*0801 = HLA-B*0801 (Homo sapiens, UniProt P01889, A93T/A95T/D138N/E176V/E187T/K202T/Q94N/R180D/S35A/V36M/Y33D/Y91F); assay: as above; conditions: score as % of positive control peptide
From the text: as §2, §3

HLA-A*0301 = target: T6, HLA-A*0301 (Homo sapiens, UniProt P04439); assay: as above; conditions: score as % of positive control peptide
T6 construct: purchased ProImmune
From the text: as §2, §3

HLA-B*3501 = HLA-B*3501 (Homo sapiens, UniProt P01889, A329T/A93T/A95T/C349S/D201E/D98Y/E176V/E187L/E204Q/E69T/I218V/K202T/L119I/Q94N/R155S/R180L/S121R/S35A/S48A/T118I/V127L/V306I/V36M/Y140S/Y91F); assay: as above; conditions: score as % of positive control peptide
From the text: as §2, §3

[5] = system: HLA-DR3 (α1*01:01;β1*03:0); assay: ProImmune REVEAL MHC class II binding assay of long peptides; parameters: species or system human; conditions: percentage of the signal of the positive control peptide; positive binding score >=15%
From the text: as §1

[6] = system: HLA-DR1 (α1*01:01;β1*01:01); assay: as above; parameters: species or system human; conditions: percentage of the signal of the positive control peptide; positive binding score >=15%
From the text: as §1

HLA class I alleles = assay: ProImmune REVEAL MHC class I binding assay, summary over the seven alleles; parameters: species or system human; conditions: for Number of allele (b): number of class I alleles for which positive binding was detected; for Number of HLA binders (a): total number binding epitopes detected for each long peptide, seven class I alleles
From the text: as §2, §3

BALB/c mice = assay: Immunogenicity in mice, IFNγ ELISpot of splenocytes, FP02.1 vs NP02.1 (Example 6); type: in vivo; conditions: mice immunised with FP02.1 or NP02.1, restimulation 5 μg/mL/peptide, FIG. 15
Protocol: The immunogenicity in mice of FP02.1 (containing nine fluorocarbon-conjugated peptides) was compared to NP02.1 (containing nine equivalent unconjugated peptides).
Alternatively, splenocytes were stimulated in vitro with 5 μg/mL/peptide of nine individual peptides for 18 hours in an ELISpot assay. The number of IFNγ+ spot forming cells (SFC) was counted. Plates then were washed with PBS, incubated with an IFNγ detection peroxidase-labelled antibody, followed by a substrate, according to the manufacturer's instructions.

T3 sequence (P01903 26-216, other chains not shown): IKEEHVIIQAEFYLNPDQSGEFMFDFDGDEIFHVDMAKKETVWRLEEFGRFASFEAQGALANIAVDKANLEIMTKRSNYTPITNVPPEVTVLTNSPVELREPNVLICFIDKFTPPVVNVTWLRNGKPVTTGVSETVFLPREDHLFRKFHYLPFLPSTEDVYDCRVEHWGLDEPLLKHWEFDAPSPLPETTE

| Substance | Number of allele (a) (HLA class II alleles) | T cell responses (IFNγ ELISpot), level and frequency of responders [1] | T cell responses (IFNγ ELISpot) grouped by infecting HBV genotype [1] | T cell responses (IFNγ ELISpot) grouped by ethnic background [1] | binding score, HLA-DR7 (α1*01:01;β1*07:01) [2] [%] | binding score, HLA-DR15 (α1*01:01;β1*15:01) [3] [%] | binding score, HLA-DR13 (α1*01:01;β1*13:01) [4] [%] | Number of nonamers having a binding score >= 45%, HLA-A*0201 (HLA-A*0201) | Number of nonamers having a binding score >= 45%, HLA-A*2402 (HLA-A*2402) | Number of nonamers having a binding score >= 45%, HLA-A*1101 (HLA-A*1101) | Number of nonamers having a binding score >= 45%, HLA-B*0702 (HLA-B*0702) | Number of nonamers having a binding score >= 45%, HLA-B*0801 (HLA-B*0801) | Number of nonamers having a binding score >= 45%, HLA-A*0301 (HLA-A*0301) | Number of nonamers having a binding score >= 45%, HLA-B*3501 (HLA-B*3501) | binding score, HLA-DR3 (α1*01:01;β1*03:0) [5] [%] | binding score, HLA-DR1 (α1*01:01;β1*01:01) [6] [%] | Number of allele (b) (HLA class I alleles) | Number of HLA binders (a) (HLA class I alleles) | IFNγ response of splenocytes to each individual peptide component (BALB/c mice) | IFNγ response of splenocytes to each individual peptide component (BALB/c mice; listed as P376) |
| --- | --- | --- | --- | --- | --- | --- | --- | --- | --- | --- | --- | --- | --- | --- | --- | --- | --- | --- | --- | --- |
| NP797(K): unconjugated HBV long peptide, core 780-814 (C to S at 792) + KKK | 0 | highest level of responses in both patient populations and in the highest proportion of subjects | highest responses across all four genotypes A, B, C & D | highest responses across all three ethnic groups | 0.01 | 1.14 | 0.00 | 6 | 5 | 1 | 4 | 3 | 1 | 2 | 0.00 | 0.20 | 7 | 22 |  |  |
| NP376: unconjugated HBV long peptide, polymerase 359-398 (C to S substitution at 393) (KLHLYSHPIILGFRKIPMGVGLSPFLLAQFTSAISSVVRR; HBV CONSENSUS SEQUENCE) |  | highest level of responses in both patient populations and in the highest proportion of subjects | highest responses across all four genotypes A, B, C & D | highest responses across all three ethnic groups |  | 6.29 | 0.00 | 8 | 10 | 1 | 4 | 6 | 0 | 6 | 0.00 | 27.71 | 6 | 35 | immune responses were dominated by four out of the 9 peptides contained in the vaccine | only observed with the formulation containing the fluorocarbon-conjugated peptides |
| NP277(K): unconjugated HBV long peptide, polymerase 260-293 + KKK (RVSWPKFAVPNLQSLTNLLSSNLSWLSLDVSAAFYHKKK; HBV CONSENSUS SEQUENCE) | 1 |  |  |  | 0.01 | 0.18 | 0.00 | 6 | 5 | 0 | 3 | 1 | 0 | 3 | 0.10 | 0.49 | 5 | 18 |  |  |
